# B1: ds32F (dsDNA)
# DNA 1: CGATCGGTAACGTATGCTGAATCTGGTGCTGG
# DNA 2: CCAGCACCAGATTCAGCATACGTTACCGATCG
# Tests used:
# FANCI (I);FANCD2 (D2) = FANCI (I);FANCD2 (D2) (Homo sapiens;Homo sapiens, UniProt Q9NVI1;Q9BXW9 1-1328;1-1451, |); assay: PIFE; 150 mM NaCl; Kd only in bar graph; EMSA: 16 mM Tris-HCl pH 8, 150 mM NaCl, 4.4% glycerol, 0.07 mg/ml BSA, 7 mM DTT, 4 mM EDTA, 2 nM DNA, on ice 20 min, 4% PAGE in 0.5x TBE (4 C). PIFE: 150 mM NaCl, 125 nM DNA, 22 C.; details: protein: recombinant;recombinant; tags: His6-TEV-V5 (N-term); His6-3C, cleaved in some cases; copies: 1;1; label: 5' IRDye700 on both strands; blunt
# FANCI R1285Q;FANCD2 (D2) = FANCI R1285Q;FANCD2 (D2) (Homo sapiens;Homo sapiens, UniProt Q9NVI1;Q9BXW9 1-1328;1-1451, R1285Q|); assay: PIFE; minor, insignificant reduction vs WT I+D2; Kd only in bar graph; EMSA: 16 mM Tris-HCl pH 8, 150 mM NaCl, 4.4% glycerol, 0.07 mg/ml BSA, 7 mM DTT, 4 mM EDTA, 2 nM DNA, on ice 20 min, 4% PAGE in 0.5x TBE (4 C). PIFE: 150 mM NaCl, 125 nM DNA, 22 C.; details: protein: recombinant;recombinant; tags: His6 (N-term);FLAG (EMSA); His6-3C, cleaved in some cases; copies: 1;1; label: 5' IRDye700 on both strands; blunt
# Chain of FANCI R1285Q;FANCD2 (D2) (Q9NVI1 whole entry R1285Q, chain 1 of 2): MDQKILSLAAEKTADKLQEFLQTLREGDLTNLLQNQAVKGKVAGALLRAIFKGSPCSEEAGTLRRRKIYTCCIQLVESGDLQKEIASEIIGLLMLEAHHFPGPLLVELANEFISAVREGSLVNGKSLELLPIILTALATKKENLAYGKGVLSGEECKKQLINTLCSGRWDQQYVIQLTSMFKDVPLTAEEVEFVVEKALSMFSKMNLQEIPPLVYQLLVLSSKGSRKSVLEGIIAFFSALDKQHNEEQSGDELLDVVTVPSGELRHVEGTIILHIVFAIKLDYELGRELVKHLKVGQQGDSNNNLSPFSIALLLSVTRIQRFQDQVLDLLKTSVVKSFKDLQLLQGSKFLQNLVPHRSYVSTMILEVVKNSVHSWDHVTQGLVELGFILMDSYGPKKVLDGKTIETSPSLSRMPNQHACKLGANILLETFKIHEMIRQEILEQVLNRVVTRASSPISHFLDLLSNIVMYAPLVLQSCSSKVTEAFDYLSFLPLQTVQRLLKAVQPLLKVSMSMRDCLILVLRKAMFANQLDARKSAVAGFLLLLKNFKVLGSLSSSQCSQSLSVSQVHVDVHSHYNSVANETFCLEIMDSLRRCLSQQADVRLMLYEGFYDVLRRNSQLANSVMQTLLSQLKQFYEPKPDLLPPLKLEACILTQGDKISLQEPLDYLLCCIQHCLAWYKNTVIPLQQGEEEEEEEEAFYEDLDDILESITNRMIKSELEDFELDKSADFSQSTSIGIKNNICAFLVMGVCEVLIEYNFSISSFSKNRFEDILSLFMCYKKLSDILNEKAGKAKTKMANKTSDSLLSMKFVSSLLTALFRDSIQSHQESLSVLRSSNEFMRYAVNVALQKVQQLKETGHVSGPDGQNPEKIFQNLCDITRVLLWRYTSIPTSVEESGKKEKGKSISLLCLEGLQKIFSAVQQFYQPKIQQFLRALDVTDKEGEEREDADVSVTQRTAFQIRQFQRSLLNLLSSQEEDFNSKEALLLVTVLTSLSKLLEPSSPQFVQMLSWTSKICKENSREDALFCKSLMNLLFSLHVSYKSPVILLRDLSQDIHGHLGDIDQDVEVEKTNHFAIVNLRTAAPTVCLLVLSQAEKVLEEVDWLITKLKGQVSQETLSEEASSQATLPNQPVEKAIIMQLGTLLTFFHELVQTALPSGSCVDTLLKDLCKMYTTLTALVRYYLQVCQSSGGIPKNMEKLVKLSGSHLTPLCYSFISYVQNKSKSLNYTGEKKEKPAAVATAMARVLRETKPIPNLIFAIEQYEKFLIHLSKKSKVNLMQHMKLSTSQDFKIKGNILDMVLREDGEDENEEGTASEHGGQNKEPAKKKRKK
# Chain of FANCI R1285Q;FANCD2 (D2) (Q9BXW9 whole entry, chain 2 of 2): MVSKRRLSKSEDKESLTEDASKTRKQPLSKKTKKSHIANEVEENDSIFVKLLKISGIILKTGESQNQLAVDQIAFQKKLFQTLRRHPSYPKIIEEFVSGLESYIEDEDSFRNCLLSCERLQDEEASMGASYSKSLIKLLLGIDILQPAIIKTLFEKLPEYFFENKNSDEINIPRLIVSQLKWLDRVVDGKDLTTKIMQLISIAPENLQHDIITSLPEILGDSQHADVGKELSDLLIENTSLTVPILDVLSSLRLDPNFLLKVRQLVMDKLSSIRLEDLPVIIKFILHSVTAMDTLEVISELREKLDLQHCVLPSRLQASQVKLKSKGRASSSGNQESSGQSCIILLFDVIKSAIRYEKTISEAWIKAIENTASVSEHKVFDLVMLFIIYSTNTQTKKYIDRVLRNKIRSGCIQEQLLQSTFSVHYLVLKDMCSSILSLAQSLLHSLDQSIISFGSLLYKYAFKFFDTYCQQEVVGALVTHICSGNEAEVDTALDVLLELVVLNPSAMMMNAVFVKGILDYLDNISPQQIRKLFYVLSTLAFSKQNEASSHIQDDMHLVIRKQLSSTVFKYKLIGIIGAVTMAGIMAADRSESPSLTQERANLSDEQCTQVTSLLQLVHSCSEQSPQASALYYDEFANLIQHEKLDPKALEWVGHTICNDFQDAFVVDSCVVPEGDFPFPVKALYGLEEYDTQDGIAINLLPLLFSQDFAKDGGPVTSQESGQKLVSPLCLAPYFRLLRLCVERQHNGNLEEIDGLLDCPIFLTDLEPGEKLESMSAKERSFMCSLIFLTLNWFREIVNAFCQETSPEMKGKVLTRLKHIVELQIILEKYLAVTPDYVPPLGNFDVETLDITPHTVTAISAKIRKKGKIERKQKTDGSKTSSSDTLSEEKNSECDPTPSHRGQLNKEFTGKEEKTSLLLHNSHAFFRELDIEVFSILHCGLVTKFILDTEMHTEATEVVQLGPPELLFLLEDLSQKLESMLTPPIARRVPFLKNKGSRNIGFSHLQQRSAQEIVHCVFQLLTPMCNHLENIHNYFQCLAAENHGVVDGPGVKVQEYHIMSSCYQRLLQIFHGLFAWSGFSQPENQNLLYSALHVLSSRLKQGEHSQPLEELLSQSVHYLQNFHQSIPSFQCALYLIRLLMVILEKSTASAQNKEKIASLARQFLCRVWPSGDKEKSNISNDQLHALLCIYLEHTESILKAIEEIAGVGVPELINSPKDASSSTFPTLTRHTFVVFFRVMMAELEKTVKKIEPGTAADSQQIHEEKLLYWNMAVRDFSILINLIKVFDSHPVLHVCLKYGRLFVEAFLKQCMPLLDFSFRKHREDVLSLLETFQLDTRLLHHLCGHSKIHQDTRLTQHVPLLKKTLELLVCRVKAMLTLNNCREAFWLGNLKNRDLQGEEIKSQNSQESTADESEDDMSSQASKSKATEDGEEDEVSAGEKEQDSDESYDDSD
# Chain of FANCI (I);FANCD2 (D2) (Q9NVI1 whole entry, chain 1 of 2): as the sequence (Q9NVI1 whole entry R1285Q, chain 1 of 2) above, with Q1285R counted along it
# Chain of FANCI (I);FANCD2 (D2) (Q9BXW9 whole entry, chain 2 of 2): as the sequence (Q9BXW9 whole entry, chain 2 of 2) above
binder,measurement,setting,value
B1,binding result,FANCI (I);FANCD2 (D2),binds
same,binding result,FANCI R1285Q;FANCD2 (D2),binds

# From PMC7332966
